Measured values published in paper PMC11026164 (Nature Nanotechnology, 2024).

Tests used:
NOD mice = test: Two-week chronic dosing in NOD mice; type: in vivo, NOD/ShiLtJ mice; details: chronic 2-week subcutaneous dosing
Protocol: Early and moderate diabetic mice were given a single treatment of SC-INS (1 IU kg^–1) or QD-INS–CS/GS (25 IU kg^–1), whereas late diabetics were given 4 and 100 IU kg^–1, respectively. An ITT was performed with BG collected at 0.25, 0.50, 0.75 and 1.00 h. […] BG was recorded daily and was maintained below 11.1 mmol l^–1 for the duration of treatment. […] BG was recorded daily and was maintained between 15 and 25 mmol l^–1 for the duration of treatment. […] Data points, mean ± s.d. shown (n = 5 biologically independent animals; one-way ANOVA with Tukey’s correction (a) and two-tailed unpaired t-test; α = 0.05 (c, e and f)).

Stability by NMR = type: physicochemical; details: 1 mg/ml in MQ water, 23 °C, 60% humidity with light exposure, 7 and 28 days
Protocol: Individual sample stock was prepared in 90% MQ water and 10% D2O at pH 7. For NMR data acquisition, 550 µl samples from each stock were transferred to a 5 mm NMR tube. All one-dimensional ^1H experiments (water suppression pulse sequence, zgesgp; time domain, 32 K; relaxation delay, 2 s; spectral width, 12.5 ppm; number of scans, 256) were collected on a Bruker 800 MHz spectrometer using a Z-gradient TCI probe at 298 K. Two-dimensional [^1H,^1H] NOESY spectra were collected on a 600 MHz spectrometer with a cryoprobe at 298 K. Data were collected and processed using TopSpin. The water offset was set to 4.697 ppm. Before Fourier transformation from the time domain to the frequency domain, the time-domain data were zero filled twice, and an exponential decay function with a line-broadening factor of 5 Hz was multiplied. Data were processed using TopSpin. For stability measurements, the samples were stored at a lab temperature of ~295 ± 2 K.
Extended Data Fig. 4 NMR characterization and stability of QD-INS–CS/GS and 2D [^1H,^1H]-NOESY NMR characterization of CS/GS. […] Stability of samples were evaluated at 1 mg/ml, in MQ water solution, 23 °C, 60% humidity with light exposure for 7 and 28 days. […] (b) Left panel: 2D [^1H, ^1H]-NOESY spectrum of maltose. Right panel: 2D [^1H, ^1H]-NOESY spectrum of chitosan and glucose (CS/GS) copolymer. […]

STZ-treated rats [1] = test: Chronic dosing in STZ-treated rats; type: in vivo, Wistar rats; details: 40 IU kg^–1 day^–1 subcutaneous
Protocol: Rats were maintained on either treatment for 2–6 weeks, with BG measured morning and evening (prior and 1 h post-injection).
Following experimentation, the rats were euthanized by a single intraperitoneal injection of 75 mg kg^–1 ketamine and 10 mg kg^–1 xylazine in saline. Blood, liver and pancreas tissue samples were collected. Plasma was collected and analysed for biochemistry and lipid parameters as above.

[2] = Appearance and solubility by optical density at pH 3 to 9; type: physicochemical; details: 1 mg/ml solutions (5 mL), pH raised from 3 to 9 with 1 M NaOH, mean of n = 3 independent batches
Protocol: 1 mg/ml solutions (5 mL total volume) were prepared for each solution. pH was adjusted to pH 3 with 1 M HCl using a pH meter. Images were collected as the pH was raised by the addition of 1 M NaOH. Images show the product solution at each pH. […] Data expressed as the mean ± s.d. (n = 3 independent batches). ζ-potential of each sample was measured using DLS. Data expressed as the mean ± s.d. (n = 3 independent batches).

[3] = Tissue biodistribution of 14C-INS in mice; type: in vivo, C57BL/6J mice; details: for tissue distribution, in words: SC-INS 2 IU kg^–1 s.c., QD-INS–CS/GS and Oral-INS 20 IU kg^–1 by gavage
Protocol: (§1) For biodistribution studies, the mice were not fasted before either a subcutaneous injection of ^14C-INS (100,000 DPM, 2 IU kg^–1) or a gavage of QD-^14C-INS–CS/GS or ^14C-INS (100,000 DPM, 20 IU kg^–1). Gavage was performed using an oesophageal gavage needle and delivered in a single rapid dose (100 µl). Blood samples were collected from a tail snip (20 µl) over 0–8 h. Mice were euthanized by a single intraperitoneal injection of 100 mg kg^–1 ketamine and 10 mg kg^–1 xylazine in saline at 0.5, 2.0 and 24.0 h post-gavage. Then, 200–250 mg of tissue samples was collected from the liver, spleen, kidneys, lungs, muscles, fat and small intestine (duodenum) along with 100 μl of blood.
(§2) Tissue and blood samples were weighed, mixed with 1 ml solvable solution and incubated at 60 °C for 4 h to dissolve. Then, 0.2 ml of 30% H2O2 was added to reduce the dark colour saturation. […] Samples were mixed with 10 ml scintillation fluid (five measurements per sample). Baseline measurements were collected from control mice (n = 3) that were not treated with radioactive samples. Data were collected and analysed as disintegrations per minute.

STZ-treated rats [4] = test: ITT in STZ-treated rats; type: in vivo, Wistar rats; details: SC-INS 5–40 IU kg^–1; QD-INS–CS/GS 10–150 IU kg^–1; n = 5
Protocol: After a month of acclimation and animal handling, rats were given a single intraperitoneal injection of STZ (65 mg kg^–1) and provided with high-glucose water (10%) for 2 days. Animals were monitored and BG checked for 10 days post-injection. Diabetic rats were identified following two repeat BG measurements at >11.1 mmol l^–1.
ITT was performed as above; rats were treated with 5–40 IU kg^–1 SC-INS or 10–150 IU kg^–1 QD-INS–CS/GS. All the ITT data presented in this manuscript used n = 5 mice per group.

C57BL/6J mice = test: Oral glucose tolerance test (oGTT); type: in vivo; details: n = 5; for effect of constituents on oGTT AUC: QD 0.6 µg, QD-INS 0.6 µg, 20 IU/kg, CS/GS 10 µg, QD-CS/GS 0.6 µg, 10 µg, insulin alone given orally 100 IU/kg, 15 min before glucose
Protocol: oGTT was performed following a 4-h fast. BG was measured using a handheld glucometer using Accu-Chek proforma strips. Blood was collected following a tail snip. BG was collected prior and for 90 min after an oral bolus of 2 g kg^–1 glucose solution. The AUC was determined based on the mmol l^–1 × min.

NOD/ShiLtJ mice = test: Insulin tolerance test (ITT) in NOD diabetic mice; type: in vivo
Protocol: Ten-week-old female NOD/ShiLtJ mice were obtained from the Animal Resource Centre in Perth. Animals were housed at the ANZAC Research Institute animal house on a 12-h light/dark cycle and provided with ad libitum access to food and water; 20–25 °C; 50–60% relative humidity; and bedding, ventilated caging systems and enrichment as per the ARRIVE guidelines. NOD/ShiLtJ mice were monitored weekly for BG changes, with mice developing T1D between weeks 12 and 24 in 90% of female mice. Diabetic mice were identified following two repeat BG measurements at >11.1 mmol l^–1.
ITT was performed with/without a 4-h fast. BG was measured using a handheld glucometer using Accu-Chek proforma strips. Blood was collected from a tail snip. […] The AUC was determined based on mmol l^–1 × min.

[5] = Blood pharmacokinetics of 14C-INS in mice; type: in vivo, C57BL/6J mice; details: subcutaneous 2 IU kg^–1, 14C-INS in blood, n = 3
Protocol: as §1, §2

[6] = HPLC–MS of released insulin; type: physicochemical; details: release by hydrolysis for 28 days at 23 °C
Protocol: Cleavage of CS/GS and removal of QDs were promoted by enzyme co-incubation (i). […] Release was promoted by hydrolysis for 28 days at 23 °C. […] Oleic acid was used as a positive control of cellular uptake and activity. […] Data points, mean ± s.d. shown [n = 3 independent experiments (a and b); n = 3 biologically independent cells (d and e) and one-way ANOVA with Tukey’s correction; α = 0.05]. a and b created with BioRender.com.

[7] = Insulin loading capacity on QDs (14C-INS, dialysis); type: physicochemical
Protocol: Three individual experiments (batches) were performed per group.

[8] = ζ-potential / isoelectric point by DLS (Zetasizer); type: physicochemical
Protocol: HD diameter, polydispersity index and ζ-potential were measured using the Zetasizer Nano ZS instrument (Malvern […]) at Sydney Analytical, the University of Sydney. CSIRO samples were measured on a Malvern Instruments Zetasizer Nano instrument ZEN3600 with a 4 mW 633 nm He–Ne gas laser. […] HD diameter and polydispersity index measurements were performed using backscatter (173°) data collection with three repeats of 12–15 measurements per sample. All the samples were analysed in disposable folded capillary cells. […] 1 mg/ml solutions (5 mL total volume) were prepared for each solution. pH was adjusted to pH 3 with 1 M HCl using a pH meter. Images were collected as the pH was raised by the addition of 1 M NaOH. Images show the product solution at each pH. […] Data expressed as the mean ± s.d. (n = 3 independent batches). ζ-potential of each sample was measured using DLS. Data expressed as the mean ± s.d. (n = 3 independent batches).

[9] = 0.5 h, subcutaneous 2 IU kg^–1, n = 3
[10] = 2 h, subcutaneous 2 IU kg^–1, n = 3

insulin human recombinant
time of return of BG to baseline post-treatment (NOD mice): 8 h | stability of samples by NMR (Stability by NMR): minimal changes | time of return of BG to baseline (STZ-treated rats [1]): ≤ 8 h | pH at which the material is insoluble [2]: 5 | distribution in the blood [3, 9]: 40% | distribution in the liver [3, 9]: 40% | distribution in the muscles/fat [3, 9]: 20% | distribution in the kidneys [3, 10]: 10% | distribution in the liver [3, 10]: 50% | distribution in the small intestine [3, 10]: 20% | tissue distribution, in words ([3]; listed as Oral-INS): remained in the small intestine | tissue distribution, in words ([3]; listed as SC-INS): greater distribution in the muscles and fat | dose dependence in ITT (STZ-treated rats [4]): dose-dependent effect | effect of constituents on oGTT AUC (C57BL/6J mice): No effect on AUC | hypoglycaemia (BG < 3.0 mmol l^–1) (C57BL/6J mice; high dose 5 IU kg^–1 subcutaneous): induced hypoglycaemia | effect of escalating dosage on BG in ITT (NOD/ShiLtJ mice; SC-INS 0–2 IU kg^–1, QD-INS–CS/GS 0–50 IU kg^–1 by gavage): dose-dependent reduction in BG | time to decrease of BG (NOD/ShiLtJ mice; subcutaneous 1 IU kg^–1): ≤ 15 min | reduction in ITT AUC (NOD/ShiLtJ mice; subcutaneous 1 IU kg^–1, single dose, n = 5): 40% | Cmax [5]: 0.1 IU ml^–1 | Tmax [5]: 15 min | T½ [5]: 15 min

QD-INS: insulin bound to 3-MPA-capped Ag2S QDs by EDC/NHS chemical crosslinking
released insulin present as monomer [6]: 87.5% | effect of constituents on oGTT AUC (C57BL/6J mice): no differences compared to controls | maximum insulin retention (loading capacity of insulin onto QDs) ([7]; 14C-INS, 10 kDa dialysis, QDs 0.5–35.2 µg ml^–1, insulin 5.0 µg ml^–1, n = 3 batches): 80% | insulin molecules per QD ([7]; based on the molar ratios): 1–2 | ζ-potential at pH 7 [8]: negative | ζ-potential between pH 3 and pH 6 ([8]; n = 3 independent batches): near-zero
